This passage reports activity (fold repression) results from patent publication US20090215878.

For this data set, the system named is ZFP-TF 8982-KRAB. The data set can be described thus: cell_activity. The following applies: rat DRG neurons, lentiviral; Nav1.8 mRNA vs GFP control; which of SEQ 2 (GAA) or SEQ 3 (CAA) is the rat site is not stated.

In turn, “GAAGAAGAATGAGAAGATG (double strand) [Nav1.8 target site (GAA variant)]” came in with an activity (fold repression) of 10.
